Consider three molecules from patent publication US20240150474A1 (Regeneron, published 2024).

In general, Kd refers to the constant that tells how readily two partners part at equilibrium. A lower Kd goes with higher affinity. Broadly, the koff is a measure of how fast the partners let go of each other. The kon is the second-order rate constant of association. Read a high kon as faster complex formation. What is called t½ is how long it takes for the measured level to halve.

Assay [1] addresses T1, dimeric human ACVRL1 (human, UniProt P37023 22-118, limits assumed).
T1 construct: Construct and dimerising part not described; also called Human Receptor ACVRL1
Description: SPR Biacore T200, mAb captured by anti-human Fab, dimeric receptor injected, 25C. As for the experimental part:
(§1) ACVR1 mAbs were tested for cross-reactivity to a panel of bone morphogenic protein type 1 receptors including human and mouse ACVR1, BMPR1A, and BMPR1B, as well as ACVRL1 on a Biacore T200 as follows. In order to measure the specificity of ACVR1 mAbs, ACVR1 mAbs were captured with anti-human Fab immobilized on a CM5 chip. 100 nM or 10 nM of dimeric human or mouse ACVR1, ACVRL1, BMPR1A or BMPR1B were injected at 30 μL/min for 2 min (duplicate injections) and the experiment was performed at 25° C. Binding of different receptors to the captured mAb was determined using Scrubber 2.0c software.
In general terms: In SPR one partner is held on a chip, and binding of the other changes the refractive index at the surface.

Assay [2] has as its target T2, dimeric mouse BMPR1B (mouse, UniProt P36898 14-126, limits assumed).
T2 construct: Construct and dimerising part not described; also called Mouse Receptor BMPR1B
T2 sequence (looked up): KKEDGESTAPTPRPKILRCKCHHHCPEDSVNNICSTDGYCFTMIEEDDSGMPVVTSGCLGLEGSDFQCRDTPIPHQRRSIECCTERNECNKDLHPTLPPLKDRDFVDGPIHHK
The description is as above. As for the experimental part: as §1

Assay [3] addresses T3, dimeric human BMPR1A (human, UniProt P36894 24-152, limits assumed).
T3 construct: Construct and dimerising part not described; also called Human Receptor BMPR1A
The assay is described as above. As for the experimental part: as §1

The target of assay [4] is T4, dimeric human BMPR1B (human, UniProt O00238 14-126, limits assumed).
T4 construct: Construct and dimerising part not described; also called Human Receptor BMPR1B
T4 sequence (looked up): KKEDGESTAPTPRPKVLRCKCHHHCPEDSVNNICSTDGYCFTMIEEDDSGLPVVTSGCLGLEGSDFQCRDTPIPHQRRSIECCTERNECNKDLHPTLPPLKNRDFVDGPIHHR
The assay is described as above. As for the experimental part: as §1

For assay [5], the target named is T5, dimeric mouse ACVRL1 (mouse, UniProt Q61288 23-119, limits assumed).
T5 construct: Construct and dimerising part not described; also called Mouse Receptor ACVRL1
T5 sequence (looked up): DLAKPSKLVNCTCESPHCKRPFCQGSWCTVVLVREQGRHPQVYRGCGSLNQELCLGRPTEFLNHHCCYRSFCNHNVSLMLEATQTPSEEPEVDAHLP
The assay is described as above. On the procedure:
as §1

The target of assay [6] is T6, dimeric mouse BMPR1A (mouse, UniProt P36895 24-152, limits assumed).
T6 construct: Construct and dimerising part not described; also called Mouse Receptor BMPR1A
T6 sequence (P36895 24-152 limits assumed): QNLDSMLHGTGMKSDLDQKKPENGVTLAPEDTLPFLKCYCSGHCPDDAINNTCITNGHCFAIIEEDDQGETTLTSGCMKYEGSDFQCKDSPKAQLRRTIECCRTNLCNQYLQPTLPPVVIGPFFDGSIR
The assay is described as above. As for the experimental part:
as §1

For assay [7], the target named is T7, mouse ACVR1 extracellular domain expressed with a C-terminal mouse IgG2a Fc tag (mouse, UniProt P37172 21-123).
T7 construct: extracellular domain; Bought from R&D Systems; also called mACVR1-mFc; R&D System 6506-RA-100; not shown: mouse IgG2a Fc tag
T7 sequence (looked up): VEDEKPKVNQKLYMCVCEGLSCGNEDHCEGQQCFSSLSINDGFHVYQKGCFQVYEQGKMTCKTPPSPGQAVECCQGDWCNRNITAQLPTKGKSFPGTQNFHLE
In words: SPR Biacore T200, mAb captured by anti-human Fc, mACVR1-mFc injected, 37C. As for the experimental part: (§2) Equilibrium dissociation constants (KD) for ACVR1 binding to purified anti-ACVR1 monoclonal antibodies were determined using a real-time surface plasmon resonance (SPR) based Biacore T200 biosensor. All binding studies were performed in 10 mM HEPES, 150 mM NaCl, 3 mM EDTA, and 0.05% v/v surfactant Tween-20, pH 7.4 (HBS-EP) running buffer at […]. The Biacore CM5 sensor surface was first derivatized by amine coupling with a monoclonal mouse anti-human Fc antibody (REGN2567) to capture anti-ACVR1 monoclonal antibodies. Different concentrations of ACVR1 reagents, human ACVR1 extracellular domain expressed with a C-terminal myc-myc-hexahistidine tag (hACVR1-mmh; REGN3111, SEQ ID NO: 63), mouse ACVR1 extracellular domain expressed with a C-terminal myc-myc-hexahistidine tag (mACVR1-mmh; REGN3407, SEQ ID NO: 65), human ACVR1 extracellular domain expressed with a C-terminal mouse IgG2a Fc tag (hACVR1-mFc; REGN3112, SEQ ID NO: 64); and mouse ACVR1 extracellular domain expressed with a C-terminal mouse IgG2a Fc tag (mACVR1-mFc, R&D system), at concentrations ranging from 0.41 nM to 100 nM in a series of 3-fold dilutions prepared in HBS-EP running buffer were injected at a flow rate of 50 μL/min for 1.5 minutes. The dissociation of different ACVR1 reagents bound to anti-ACVR1 monoclonal antibodies was monitored for 20 minutes in HBS-EP running buffer. At the end of each cycle, the anti-ACVR1 monoclonal antibodies capture surface was regenerated using a 12 sec injection of 20 mM H3PO4. The association rate (ka) and dissociation rate (kd) were determined by fitting the real-time binding sensorgrams to a 1:1 binding model with mass transport limitation using Scrubber 2.0c curve-fitting software. Binding dissociation equilibrium constant (KD) and dissociative half-life (t½) were calculated from the kinetic rates as: […]
(§3) Binding kinetics parameters for different ACVR1 reagents to anti-ACVR1 monoclonal antibodies of the invention at 37° C. are shown in Table 5 through Table 8.

The target of assay [8] is T8, human ACVR1 extracellular domain expressed with a C-terminal mouse IgG2a Fc tag (human).
T8 construct: also called hACVR1-mFc; REGN3112
T8 chain: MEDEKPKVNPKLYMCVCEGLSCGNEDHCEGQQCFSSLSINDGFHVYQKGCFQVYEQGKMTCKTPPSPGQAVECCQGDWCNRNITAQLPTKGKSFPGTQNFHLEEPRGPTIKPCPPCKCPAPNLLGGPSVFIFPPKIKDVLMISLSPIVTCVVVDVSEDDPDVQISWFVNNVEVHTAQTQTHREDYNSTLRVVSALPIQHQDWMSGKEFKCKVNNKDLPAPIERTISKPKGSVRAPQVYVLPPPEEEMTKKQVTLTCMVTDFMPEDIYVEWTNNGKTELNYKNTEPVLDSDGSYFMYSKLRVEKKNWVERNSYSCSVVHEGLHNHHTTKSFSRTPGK
In words: SPR Biacore T200, mAb captured by anti-human Fc, hACVR1-mFc injected, 37C. As for the experimental part:
as §2, §3

T1 sequence (P37023 22-118 limits assumed): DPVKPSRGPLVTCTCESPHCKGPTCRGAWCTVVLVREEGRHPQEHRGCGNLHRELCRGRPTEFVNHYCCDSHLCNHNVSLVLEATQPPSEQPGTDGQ
T3 sequence (P36894 24-152 limits assumed): as the sequence (P36895 24-152 limits assumed) above, with L16S, P21S, T74A counted along it

B1: REGN 5168 (antibody, human IgG4 S228P, kappa, V domains shown)
VH: QVQLVQSGAEVKEPGASVKVSCKASGYTFAEYYMHWVRQAPGQGLEWMGAINPSGSHTSYAQKFQGRVTMTRDTSTSTVYMELSSLRSEDTAVYYCARSISGKRGGDYYGMDVWGQGTTVTVSS
VL: DIQMTQSPSTLSASVGDRVTITCRASQSISSWLAWYQQKPGKAPKLLIYKASSLESGVPSRFSGSGSGTEFTLTISSLQPDDFATYYCQQYSIFPFTFGGGTKVEIKR
notes: also called REGN 5168-L1
As for B1, the binding result in assay [1], in assay [2], in assay [3], in assay [4], in assay [5] and in assay [6] was “no binding (tested: 100 nM)” in each case. Moreover, the “100 nM Ag Bound (RU)” value stood at 135 RU in assay [7] and 145 RU in assay [8]. Further, the dissociation constant Kd in assay [7] stood at 0.0362 nM; in assay [8], 0.191 nM. Also, the results for the koff in assay [7] and in assay [8] were 0.000111 s⁻¹ and 0.000357 s⁻¹, respectively. Besides, the on-rate (kon) came to 3.06e+06 M⁻¹ s⁻¹ in assay [7] and 1.87e+06 M⁻¹ s⁻¹ in assay [8]. Moreover, the t½ in assay [7] is 1.73 h; in assay [8], 0.533 h.

B2: REGN 5166 (antibody, human IgG4 S228P, kappa, V domains shown)
VH: QVQLVESGGGVVQPGRSLRLSCAASGFTFSAYWMHWVRQAPGKGLEWVAVISYDGSNKYYADSVKGRFTISRDHSKNTLYLQMNSLRAEDTAVYYCAKGDAYDSWRILLGGDYYGMDVWGQGTTVTVSS
VL: EIVLTQSPGTLSLSPGERATLSCRASQSVSSSYLAWYQQKPGQAPRPLIYGASSRATGIPDRFSGSGSGTDFTLTISRLEPEDFAVYYCQQGGDAPPYTFGGGTKVEIKR
notes: also called REGN 5166-L1
Consider B2, for which the binding result in assay [1], in assay [2], in assay [3], in assay [4], in assay [5] and in assay [6] was “no binding (tested: 100 nM)” each time. In addition, the “100 nM Ag Bound (RU)” value was 134 RU in assay [7] and 142 RU in assay [8]. Besides, the Kd in assay [7] turned out to be 0.0179 nM; in assay [8] it was 0.0478 nM. The off-rate (koff) in assay [7] stood at 3.63e-05 s⁻¹; in assay [8], 5.65e-05 s⁻¹. Moreover, the on-rate (kon) in assay [7] was found to be 2.03e+06 M⁻¹ s⁻¹; in assay [8], 1.18e+06 M⁻¹ s⁻¹. For the same molecule, the t½ in assay [7] was determined as 5.3 h; in assay [8] it was 3.4 h.

B3: REGN 5167 (antibody, human IgG4 S228P, kappa, V domains shown)
VH: QLQLQESGPGLVKPSETLSLTCTVSGGSITSSSYYWAWIRQPPGKGLEWIGKIYYSGSTHYNPSLKSRVTISVDTSKNQFSLKLSSVTAADTAVYYCARVGGHGYGDSAGLAFDIWGQGTMVTVSS
VL: EIVLTQSPGTLSLSPGERATLSCRASQSVSSAFLAWYQQKPGQAPRLLIYGASYRHTGIPDRFSGSGSGTDFTLTISRLEPEDFAVYYCQHYGVGPRTFGGGTKVEIKR
notes: also called REGN 5167-L1
Take B3: the binding result in assay [1], in assay [2], in assay [3], in assay [4], in assay [5] and in assay [6] was “no binding (tested: 100 nM)” each time. For the same molecule, the “100 nM Ag Bound (RU)” value was determined as 135 RU in assay [7] and 141 RU in assay [8]. Besides, the dissociation constant Kd in assay [7] was 0.0192 nM; in assay [8], 0.0481 nM. Further, the koff is 3.63e-05 s⁻¹ in assay [7] and 5.36e-05 s⁻¹ in assay [8]. The kon in assay [7] amounted to 1.89e+06 M⁻¹ s⁻¹; in assay [8], 1.11e+06 M⁻¹ s⁻¹. Moreover, the t½ in assay [7] was 5.3 h; in assay [8] it was 3.58 h.
